The values that follow come from patent WO2014065403A1 (dated 2014).

Numbering of substitutions follows the chain as printed.

Assay [1] has as its target T1, partial length CD40 D2 (expressed from the 62nd amino acid of CD40) (human, UniProt P25942 62-277).
T1 construct: not shown: VSV-G tag added at the C-terminus
Description: FACS at 1 ug/mL on 293T cells transiently expressing partial length CD40.

Assay [2] concerns the target T2, partial length CD40 from CD40 amino acid residue 78 onward (human, UniProt P25942 78-277).
T2 construct: also called D2B1 (by its position in the series D1, D1B2, D2, D2B1, D3, D4); not shown: VSV-G tag added at the C-terminus
Description: FACS on 293T cells transiently expressing partial length CD40.

Assay [3] addresses T3, partial length CD40 D3 (expressed from the 105th amino acid of CD40) (human, UniProt P25942 105-277).
T3 construct: not shown: VSV-G tag added at the C-terminus
Kind of assay: FACS at 1 ug/mL on 293T cells transiently expressing partial length CD40.

Assay [4] deals with T4, partial length CD40 from CD40 amino acid residue 146 onward (human, UniProt P25942 146-277).
T4 construct: also called D4 (by its position in the series D1, D1B2, D2, D2B1, D3, D4); not shown: VSV-G tag added at the C-terminus
Kind of assay: FACS on 293T cells transiently expressing partial length CD40.

A further assay concerns the target T5, cynomolgus monkey CD40 (cynomolgus monkey, UniProt P25942 21-277 (human entry)).
T5 construct: Stably expressed on CHO cells (pCXN3 vector); also called cynomolgus CD40
T5 chain: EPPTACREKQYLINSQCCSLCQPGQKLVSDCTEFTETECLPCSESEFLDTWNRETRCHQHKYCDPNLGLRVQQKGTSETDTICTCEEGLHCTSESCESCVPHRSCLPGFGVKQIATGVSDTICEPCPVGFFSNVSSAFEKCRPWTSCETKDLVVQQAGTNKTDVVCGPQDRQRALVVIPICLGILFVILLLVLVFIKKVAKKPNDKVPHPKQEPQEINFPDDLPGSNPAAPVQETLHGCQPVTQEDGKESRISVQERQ
Kind of assay: FACS on CHO cells expressing cynomolgus monkey CD40.

The target of another assay is T6, mouse CD40 (mouse, UniProt P27512 20-289).
T6 construct: Stably expressed on CHO cells (pCXN3 vector)
T6 sequence: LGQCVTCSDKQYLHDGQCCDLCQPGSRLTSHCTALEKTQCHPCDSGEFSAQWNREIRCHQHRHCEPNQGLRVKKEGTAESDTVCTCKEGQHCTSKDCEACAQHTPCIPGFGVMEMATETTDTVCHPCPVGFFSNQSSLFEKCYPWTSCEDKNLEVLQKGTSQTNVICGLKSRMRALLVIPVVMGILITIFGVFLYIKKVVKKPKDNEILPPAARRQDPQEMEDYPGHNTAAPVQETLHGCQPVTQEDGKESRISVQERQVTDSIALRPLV
Description: FACS on CHO cells expressing mouse CD40.

B1: antibody of SEQ ID NOs: 12 and 37 (antibody, V domains shown)
VH: EVQLQHSGAELVKPGSSVKLSCTASDFNIKDAYMHWVKQRPEQGLEWIGRIDPANGKTKYDPKFQDKATITADTSSNTAYLQLNSLTSEDTAVYYCPRNYYGSRYGYFDVWGAGTTVTVSS
VL: QIVLTQSPAILSASPGEKVTITCSASSSVDYMFWFQQKPGTSPKLWIYTTSNLASGVPTRFSGSGSGTSYSLTISRMEAEDAATYYCHQRSSYPLTFGAGTKLELK
notes: clone name not tied; The text speaks of the mature part of these entries
Regarding B1, the binding result is “binds” in assay [1] and “no binding (tested: 1 μg/mL)” in assay [2].

B2: antibody of SEQ ID NOs: 13 and 38 (antibody, V domains shown)
VH: EVQLQQSGAELVKPGASVKLSCTASGFNIKDSYIHWVKQRPEQGLEWIGRIDPANGNTKYDPKFQGKATITSDTSSSTAYLQLTSLTSEDTAVYYCPRNYYGSTYGYFDVWGAGTTVTVSS
VL: B1 VL with L11M, D30S, Y31N, F33H, P39A, T49R, T59A, H88Q, R90G
notes: as for B1
On to B2, for which the binding result in assay [1] was “binds”; in assay [2] it was “no binding (tested: 1 μg/mL)”.

B3: antibody of SEQ ID NOs: 15 and 40 (antibody, V domains shown)
VH: QVQLQQSGAELARPGASLKMSCKASGYTFTSYTIHWIKQRPGQGLEWIGYINPSSGYTNDNQKFKDKATLTADKSSTTAYMQLSSLTSEDSAVYYCARLGRPFDYWGQGTTLTVSS
VL: EIVLTQSPALMAASPGEKVTITCSVSSSISSSNLHWYQQKSETSPKPWIYGTSNLASGVPVRFSGSGSGTSYSLTISSMEAEDAATYYCQQWSTYPLTFGSGTKLEIK
notes: as for B1
As for B3, the binding result in assay [3] is “binds”; in assay [4], “no binding (tested: 1 μg/mL)”.

B4: mouse antibody PPAT-071-04 (antibody, V domains shown)
VH: EVQLQQSGPELVKPGASMKISCKASGYSFADYTMNWVKQSHGKKLEWIGLINPYNGGTSYNQKFKDKATLTVDKSSSTAYMELLSLTTEDSAVYYCAEGVNNFADWGQGTTLTVSG
VL: DIVLTQSPTSLAVFLGQRATISCRASKSVSTSGYSYMHWYQQKPGQSPKPLIYLASNLESGVPARFSGSGSGTDFTLNIHPVEEEDAATYYCQHSRELPRTFGGGTKLEIK
notes: Mouse monoclonal IgG from ascites; also called hybridoma NITE BP-01435
Turning to B4, the binding result with cynomolgus monkey CD40 is reported as “binds”; in assay [3], “binds”; in assay [4], “no binding (tested: 1 μg/mL)”; with mouse CD40, “no binding”.

B5: antibody of SEQ ID NOs: 8 and 33 (antibody, V domains shown)
VH: EVQLQQSGPELVKPGASVKMSCKASGYTFTNYVMHWVKQKPGQGLEWIGYVNPYNDDTNYNERFKGKATLTSDKSSSTAYMELSSLTSEDSAVYYCARELTGTYWGQGTLVTVSA
VL: DIVMTQAAPSVPVTPGESVSISCRSSKSLLHSNGNTYLYWFLQRPGQSPQLLISRISNLASGVPDRFSGSGSGTAFTLRISRVEAEDVGVYYCMQHVEYPFTFGSGTKLEIK
notes: as for B1
As for B5, the binding result was “binds” in assay [3] and “no binding (tested: 1 μg/mL)” in assay [4].

B6: antibody of SEQ ID NOs: 16 and 41 (antibody, V domains shown)
VH: EVQLQQSGPELVKPGASVKMSCKASGYTFINYVIHWVKQKPGQGLEWIGYINPYNDDSNYNEKFKGKATLTSDKSSSTAYMELRSLTSEDSAIYYCARDLIGSYWGQGTTLTVSS
VL: B5 VL with P12I, L38F, V90I, V97L, S105A, L109V, I111L
notes: as for B1
Regarding B6, the results for the binding result in assay [3] and in assay [4] were “binds” and “no binding (tested: 1 μg/mL)”, respectively.

B7: antibody of SEQ ID NOs: 28 and 53 (antibody, V domains shown)
VH: EVQLQQSGAELVKPGASVKLSCTGSGFNIKDTYMHWVKQRPEQGLEWIGRIDPANGNTKFDPKFQGKATITADTSTNTAYLQVSSLTSEDTAVYYCVRYGYDGYFDYWGQGTTLTVSS
VL: QIVLTQSPAIMSASPGEKVTMTCSVSSSISYMYWYQQKPGTSPKRWIYDTSKLASGVPARFSGSGSGTSYSLTISSMEAEDAATYYCHQRSSYPLTFGAGTKLELK
notes: as for B1
In the case of B7, the binding result in assay [1] was “binds”; in assay [2], “no binding (tested: 1 μg/mL)”.
